Six molecules from US12018066 (TRIAD NATIONAL SECURITY, dated 2024) can be followed below.

Like-named read-outs stand apart in the source and are kept apart here.

Assay [1] deals with T1, SARS-CoV spike protein receptor binding domain (RBD1) (SARS-CoV, UniProt P59594 306-527). Nature of the assay: ELISA, minibodies (FIG. 6).
The target in assay [2] is T2, SARS-CoV-2 spike protein receptor binding domain (RBD2) (SARS-CoV-2, UniProt P0DTC2 319-537). Briefly: SPR, immobilized antibody, RBD injected, 1:1 fit. Background: SPR reads the build-up and loss of mass on a sensor chip optically.
For assay [3], the target named is T2, SARS-CoV-2 spike protein receptor …. Nature of the assay: SPR.
Assay [4] has the same target. Briefly: SPR sandwich binning, ligand CR3022.
Assay [5] shares this target. Nature of the assay: SPR sandwich binning, ligand Anti-His.
Assay [6] has the same target. Nature of the assay: SPR sandwich binning, ligand B04.
Assay [7] shares this target. Briefly: SPR sandwich binning, ligand S01.
The target is the same in assay [8]. Nature of the assay: SPR sandwich binning, ligand H05.
Assay [9] has the same target. Briefly: SPR sandwich binning, ligand E08.
The target is the same in assay [10]. Nature of the assay: SPR sandwich binning, ligand G07.
The target in assay [11] is SARS-CoV-2 spike protein on whole SARS-CoV-2 virus (SARS-CoV-2, UniProt P0DTC2 14-1273). Nature of the assay: cell-based or functional assay.
The target in assay [12] is T2, SARS-CoV-2 spike protein receptor …. Briefly: SPR sandwich binning, ligand H01.
Assay [13] shares this target. Briefly: SPR sandwich binning, ligand E01.
For assay [14] the target is unchanged. Briefly: SPR sandwich binning, ligand F07.
For assay [15] the target is unchanged.
The target is the same in assay [16]. Nature of the assay: SPR, minibodies.
For assay [17] the target is unchanged. Nature of the assay: flow cytometry, yeast-displayed scFv, titration of biotinylated antigen. (In general: A flow cytometer gives signals particle by particle.)
Assay [18] has the same target. Briefly: flow cytometry, yeast-displayed scFv.
The target is the same in assay [19]. The source holds these as a separate data set.
The target of assay [20] is T1, SARS-CoV spike protein receptor binding …. Briefly: flow cytometry (yeast scFv) / minibody ELISA, FIGS. 7A-C.

B1: F07 minibody (scFv-Fc) (Fc fusion)
chain: SYVLTQPPSVSVAPGQTARITCGGNNIGSKSVHWYQQKPGQAPVLVVYDDSDRPSGIPERFSGSNSGNTATLIISRVEAGDEADYYCQVWDSSSVHYVFGTGTKLTVLSGGSTITSYNVYYTKLSSSGTQVQLVQSGAEVKKPGSSVRVSCKVSGYTFTGYYMHWVRQAPGQGLEWMGIINPSGGSTSYAQKFQGRVTMTRDTSTSTVYMELSSLRSEDTAVYYCARVRVGASDAFDIWGQGTMVTVSS
In general, Kd refers to a measure of binding affinity in units of concentration. A high value points to weaker binding. With B1, the binding result in assay [1] is listed as “no binding”. Moreover, the Kd in assay [2] and in assay [3] was 61.5 nM in each case.

B2: E08 IgG1 (antibody, V domains shown)
VH: QVQLVQSGAEVKKPGSSVKVSCKASGGTFSSYAISWVRQAPGQGLEWMGGIIPIFGTANYAQKFQGRVTITADESTSTAYMELSSLRSEDTAVYYCARASGRWLQFWHYYGMDVWGQGTTVTVSS
VL: SYVLTQPPSVSVAPGKTARITCGGNNIGWKSVHWYQQKPGQAPVLVVYDDSDRPSGIPERFSGSNSGNTATLTISRVEAGDEADYYCQVWDSSSDLVVFGGGTKLTVL
With B2, the “normalized analyte binding to RBD2 held by the immobilized ligand” value (from here on “normalized analyte binding to RBD2 held”) in assay [4] is -0.08; in assay [5], 1.81; in assay [6], 2.12; in [7] it was 1.85; in [8], -0.11; in [9], -0.09. In addition, the “normalized analyte binding to RBD2 held” value was found to be 2.62 in [10], 0.13 in [12], 2.15 in assay [13] and 1.32 in assay [14]. Besides, the equilibrium dissociation constant (Kd) in [2] worked out at 27 nM; in [3], 27 nM; in assay [15] it was 26 nM. The “NT50 (nM), half neutralization titer” value in [11] is 52.9 nM. Further, the “Nmax (%), neutralization maximum” value in assay [11] came to 70.4%.

B3: R26 minibody (scFv-Fc) (Fc fusion)
chain: SYELTQPPSVSVAPGQTATITCGGKNIESKSVHWYQQKPGQAPVLVVSDDTDRASGIPERFSGSNSGGAATLTISRVEAGDEADYYCQVWDSPSDHYVFGPGTKLTVLSGGSTITSYNVYYTKLSSSGTQVQLVESGGGVVQPGRSLRLSCAASGFTFSSYAMHWVRQAPGKGLEWVAVISYDGSNKYYADSVKGRFTISRDKAKNTLYLQMNSLRGEDTAVYYCARELSYYDSSGYLRGDWYFDLWGRGTLVTVSS
On to B3, for which the figures for the Kd in assay [16] and in assay [2] were 900 nM and 888 nM, respectively.

B4: H01 IgG1 (antibody, V domains shown)
VH: QVTLKESGPVLVKPTETLTLTCTVSGFSLSNARMGVSWIRQPPGKALEWLAHIFSNGEKSYSTSLKSRLTISKDTSKSQVVLTMTNMDPVDTATYYCARTLDYYDSSGYLVGGAFDIWGQGTMVTVSS
VL: QPGLTQPPSVSLAPGQTARITCGGNNIGSKSVHWYQQKPGQAPVLVVYDDSDRPSGIPERFSGSNAGNTATLTISRVEAGDEADYYCQVWDSRSDQYVFGTRTKLTVL
notes: also called H1
Consider B4, for which the “normalized analyte binding to RBD2 held” value was -0.05 in assay [4]; 1.75 in [5]; 0.77 in assay [6]; -0.11 in assay [7]; -0.05 in assay [8]; -0.03 in assay [9]. In addition, the “normalized analyte binding to RBD2 held” value in [10] was 1.28; in assay [12] it was -0.03; in assay [13], 0.41; in [14] it was 0.03. In addition, the dissociation constant (Kd) was found to be 800 nM in [2], 800 nM in [3] and 721 nM in assay [15]. In assay [11], the “NT50 (nM), half neutralization titer” value turned out to be 69.6 nM. Moreover, in assay [11], the “Nmax (%), neutralization maximum” value stood at 87.7%.

B5: E08 scFv (scFv)
scFv: SYVLTQPPSVSVAPGKTARITCGGNNIGWKSVHWYQQKPGQAPVLVVYDDSDRPSGIPERFSGSNSGNTATLTISRVEAGDEADYYCQVWDSSSDLVVFGGGTKLTVLSGGSTITSYNVYYTKLSSSGTQVQLVQSGAEVKKPGSSVKVSCKASGGTFSSYAISWVRQAPGQGLEWMGGIIPIFGTANYAQKFQGRVTITADESTSTAYMELSSLRSEDTAVYYCARASGRWLQFWHYYGMDVWGQGTTVTVSS
Regarding B5, the Kd in assay [17], in [18] and in [19] was 13.9 nM in each case. Moreover, the binding result in assay [20] is listed as “binds”.

B6: E08 minibody (scFv-Fc) (Fc fusion)
chain: B5 scFv
In the case of B6, the dissociation constant Kd was determined as 4 nM in [16], 3.6 nM in assay [2] and 3.6 nM in assay [3].
